The text below walks through data of patent US20210095041A1 (published 2021).

As a reminder, the Kd is a measure of binding affinity in units of concentration. High values mean weaker binding, low ones tighter binding.

Assay [1] has as its target Clone #14. As to the kind of experiment: MSD-SET; Fab.
In assay [2] the target is Clone #1. As to the kind of experiment: MSD-SET; Fab.
Assay [3] addresses Clone #20. As to the kind of experiment: MSD-SET; Fab.
Assay [4] has as its target Clone #15. As to the kind of experiment: MSD-SET; Fab.
The target of assay [5] is Clone #13. Kind of assay: MSD-SET; Fab.
In assay [6] the target is Clone #17. Kind of assay: MSD-SET; Fab.
Assay [7] has as its target Clone #18. Kind of assay: MSD-SET; Fab.
For a further assay, the target named is Clone #5. Kind of assay: BLI (ForteBio Octet); IgG, monovalent.
For a further assay, the target named is Clone #10. Kind of assay: BLI (ForteBio Octet); IgG, monovalent.
The next assay has as its target Clone #12. As to the kind of experiment: BLI (ForteBio Octet); IgG, monovalent.
Another assay has as its target Clone #8. Kind of assay: BLI (ForteBio Octet); IgG, monovalent. (In general: In BLI a coated tip is dipped into the sample, and binding shifts an interference pattern.)
Assay [8] deals with Clone #14. Kind of assay: BLI (ForteBio Octet); IgG, monovalent.
The target in the next assay is Clone #9. Kind of assay: BLI (ForteBio Octet); IgG, monovalent.
Assay [9] concerns the target Clone #1. As to the kind of experiment: BLI (ForteBio Octet); IgG, monovalent.
Assay [10] concerns the target Clone #20. Kind of assay: BLI (ForteBio Octet); IgG, monovalent.
Another assay concerns the target Clone #6. Kind of assay: BLI (ForteBio Octet); IgG, monovalent.
A further assay addresses Clone #16. Kind of assay: BLI (ForteBio Octet); IgG, monovalent.
In a further assay the target is Clone #3. Kind of assay: BLI (ForteBio Octet); IgG, monovalent.
For assay [11], the target named is Clone #15. Kind of assay: BLI (ForteBio Octet); IgG, monovalent.
A further assay deals with Clone #7. As to the kind of experiment: BLI (ForteBio Octet); IgG, monovalent.
The target of assay [12] is Clone #13. As to the kind of experiment: BLI (ForteBio Octet); IgG, monovalent.
The target of assay [13] is Clone #17. As to the kind of experiment: BLI (ForteBio Octet); IgG, monovalent.
Another assay concerns the target Clone #2. Kind of assay: BLI (ForteBio Octet); IgG, monovalent.
The next assay addresses Clone #4. Kind of assay: BLI (ForteBio Octet); IgG, monovalent.
The target in the next assay is Clone #19. As to the kind of experiment: BLI (ForteBio Octet); IgG, monovalent.
For the next assay, the target named is Clone #11. Kind of assay: BLI (ForteBio Octet); IgG, monovalent.
In assay [14] the target is Clone #18. As to the kind of experiment: BLI (ForteBio Octet); IgG, monovalent.

B1: Biotinylated Human CD39-His (enzyme)
chain: TQNKALPENVKYGIVLDAGSSHTSLYIYKWPAEKENDTGVVHQVEECRVKGPGISKFVQKVNEIGIYLTDCMERAREVIPRSQHQETPVYLGATAGMRLLRMESEELADRVLDVVERSLSNYPFDFQGARIITGQEEGAYGWITINYLLGKFSQKTRWFSIVPYETNNQETFGALDLGGASTQVTFVPQNQTIESPDNALQFRLYGKDYNVYTHSFLCYGKDQALWQKLAKDIQVASNEILRDPCFHPGYKKVVNVSDLYKTPCTKRFEMTLPFQQFEIQGIGNYQQCHQSILELFNTSYCPYSQCAFNGIFLPPLQGDFGAFSAFYFVMKFLNLTSEKVSQEKVTEMMKKFCAQPWEEIKTSYAGVKEKYLSEYCFSGTYILSLLLQGYHFTADSWEHIHFIGKIQGSDAGWTLGYMLNLTNMIPAEQPLSTPLSHSTYV
For B1, the Kd with Clone #14 [1] was determined as 0.15 nM; in the assay with Clone #1 [2], 2.1 nM; in the assay with Clone #20 [3], 0.61 nM; in the assay with Clone #15 [4], 0.38 nM; in the assay with Clone #13 [5], 0.17 nM; with Clone #17 [6], 0.099 nM. In addition, in the assay with Clone #18 [7], binding was put at a Kd of 0.038 nM.

B2: Human CD39-His (enzyme)
chain: TQNKALPENVKYGIVLDAGSSHTSLYIYKWPAEKENDTGVVHQVEECRVKGPGISKFVQKVNEIGIYLTDCMERAREVIPRSQHQETPVYLGATAGMRLLRMESEELADRVLDVVERSLSNYPFDFQGARIITGQEEGAYGWITINYLLGKFSQKTRWFSIVPYETNNQETFGALDLGGASTQVTFVPQNQTIESPDNALQFRLYGKDYNVYTHSFLCYGKDQALWQKLAKDIQVASNEILRDPCFHPGYKKVVNVSDLYKTPCTKRFEMTLPFQQFEIQGIGNYQQCHQSILELFNTSYCPYSQCAFNGIFLPPLQGDFGAFSAFYFVMKFLNLTSEKVSQEKVTEMMKKFCAQPWEEIKTSYAGVKEKYLSEYCFSGTYILSLLLQGYHFTADSWEHIHFIGKIQGSDAGWTLGYMLNLTNMIPAEQPLSTPLSHSTYV
Consider B2, for which the Kd in the assay with Clone #5 came to 29.6 nM; with Clone #10, 37.3 nM; in the assay with Clone #12 it was 1.38 nM; with Clone #8, 28.3 nM; in the assay with Clone #14 [8], 1.25 nM; in the assay with Clone #9, 124 nM. The Kd came to 8.04 nM with Clone #1 [9]; 3.89 nM with Clone #20 [10]; 177 nM with Clone #6; 3.81 nM with Clone #16; 3.25 nM with Clone #3; 1.97 nM in the assay with Clone #15 [11]. Besides, the Kd in the assay with Clone #7 was 94.3 nM; in the assay with Clone #13 [12] it was 1.19 nM; with Clone #17 [13], 1.14 nM; in the assay with Clone #2, 11.6 nM; with Clone #4, 3.65 nM; with Clone #19 it was 28.3 nM. Besides, the Kd with Clone #11 turned out to be 14.7 nM; with Clone #18 [14] it was 0.706 nM.
